Each block holds one molecule with its values, some of them ahead of it. No end group written: not given here.
Tests used:
[1] = molecular target: Arc(207-278) binding to TARPγ2 peptide (Rattus norvegicus, UniProt Q63053); settings: Figure S5C; chlorpromazine data not shown
[2] = molecular target: T1, RnArc (207-370), Arc GAG domain, wild type (rat, UniProt Q63053 207-370); assay: pull-down
T1 sequence (looked up): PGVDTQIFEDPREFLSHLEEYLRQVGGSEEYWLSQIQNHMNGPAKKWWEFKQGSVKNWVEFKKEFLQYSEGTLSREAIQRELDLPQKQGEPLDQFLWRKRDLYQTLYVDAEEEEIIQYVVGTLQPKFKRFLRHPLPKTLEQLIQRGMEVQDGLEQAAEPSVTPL

Arc N-lobe (207-277) = molecular target: T2, Arc N-lobe (207-277) (rat, UniProt Q63053 207-277); assay: pull-down
T2 sequence (looked up): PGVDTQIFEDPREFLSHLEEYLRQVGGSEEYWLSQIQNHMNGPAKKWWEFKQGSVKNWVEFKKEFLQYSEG

[3] = molecular target: T1, RnArc (207-370), Arc GAG domain, wild …; assay: fluorescence polarisation

Molecule: CN1CCN(CCCN2c3ccccc3Sc3ccc(C(F)(F)F)cc32)CC1 [Trifluoperazine]
- inhibition of Arc N-lobe binding [1]: inhibited binding, but with lower affinity

B1: GST-TARPγ2 cytoplasmic tail (203-323) (domain or fragment, mouse, UniProt O88602 203-323, looked up)
chain: DRHKQLRATARATDYLQASAITRIPSYRYRYQRRSRSSSRSTEPSHSRDASPVGVKGFNTLPSTEISMYTLSRDPLKAATTPTATYNSDRDNSFLQVHNCIQKDSKDSLHANTANRRTTPV
- binding result [3]: binds

Molecule: RTPVFV (peptide, UniProt Q8R5H6 315-320, looked up) [WAVE1 peptide (aa315-320)]
- binding result [3]: binds

Other lines, results leading:

- binding result [2]: binds
Molecule: {GST}-DRHKQLRATARATDYLQASAITRIPSYRYRYQRRSRSSSRSTEPS (domain or fragment, mouse, UniProt O88602 203-247, looked up) [GST-TARPγ2 fragment (203-247)]

- binding result (Arc N-lobe (207-277)): binds
Molecule: TGLIENRPQSPAAGRTPVFVSPTPPPPPPPLPSALSTSSLRAS (domain or fragment, mouse, UniProt Q8R5H6 301-343, looked up) [GST-WAVE1 (aa301-343)]
